Tests used:
Test in all cases: SPR, captured via anti-human kappa, soluble ECD injected
[1] = target: T1, Soluble human HER-2 extracellular domain (ECD) protein (human, UniProt P04626 23-652)
T1 construct: extracellular domain; His-tagged

[2] = target: T2, Soluble human EGFR ECD protein (human, UniProt P00533 25-645)
T2 construct: extracellular domain; His-tagged

[3] = target: T3, Soluble human cMet extracellular domain (ECD) protein (human, UniProt P08581 25-932)
T3 construct: extracellular domain; His-tagged
T3 sequence (P08581 25-932): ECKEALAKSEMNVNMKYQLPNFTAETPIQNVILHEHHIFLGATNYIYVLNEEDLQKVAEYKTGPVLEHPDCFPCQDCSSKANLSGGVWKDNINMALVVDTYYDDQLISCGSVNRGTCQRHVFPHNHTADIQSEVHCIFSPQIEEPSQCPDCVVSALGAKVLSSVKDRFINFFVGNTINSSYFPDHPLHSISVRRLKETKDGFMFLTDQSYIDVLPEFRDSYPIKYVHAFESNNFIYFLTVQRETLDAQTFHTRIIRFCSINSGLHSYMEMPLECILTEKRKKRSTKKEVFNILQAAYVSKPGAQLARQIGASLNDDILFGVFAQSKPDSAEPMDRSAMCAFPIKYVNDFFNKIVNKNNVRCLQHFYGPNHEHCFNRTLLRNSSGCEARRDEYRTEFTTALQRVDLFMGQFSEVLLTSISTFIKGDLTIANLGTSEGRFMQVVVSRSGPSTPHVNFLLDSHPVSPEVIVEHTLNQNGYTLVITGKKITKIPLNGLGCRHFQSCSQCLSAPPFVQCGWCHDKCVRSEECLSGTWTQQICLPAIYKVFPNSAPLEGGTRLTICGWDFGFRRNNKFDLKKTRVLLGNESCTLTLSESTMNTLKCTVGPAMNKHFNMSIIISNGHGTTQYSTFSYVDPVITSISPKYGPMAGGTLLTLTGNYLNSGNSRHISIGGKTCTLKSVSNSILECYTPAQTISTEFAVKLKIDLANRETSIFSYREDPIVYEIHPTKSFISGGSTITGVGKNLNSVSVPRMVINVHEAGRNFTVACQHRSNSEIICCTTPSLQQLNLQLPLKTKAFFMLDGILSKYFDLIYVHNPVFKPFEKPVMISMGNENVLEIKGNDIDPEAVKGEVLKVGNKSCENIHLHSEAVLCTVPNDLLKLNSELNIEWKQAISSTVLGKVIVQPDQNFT

B1: HER-2 X EGFR X cMet TsAb_HHL (other)
heavy: EVQLVESGGGLVQPGGSLRLSCAASGFTFTDYTMDWVRKAPGKGLEWVADVNPNSGGSIYNQEFKGRFTLSVDRSKNTLYLQMNSLRAEDTAVYYCARNLGPSFYFDYWGQGTLVTVSSASTKGPSVFPLAPSSKSTSGGTAALGCLVKDYFPEPVTVSWNSGALTSGVATGPAVLQSSGLYSLSSVVTVPSSSLGTQTYICNVNHKPSNTKVDKKVEPKSCGGGGSGGGGSGGGGSQVQLVQSGAEVKKPGASVKVSCKASGYTFTSHWMHWVRYAPGQGLEWIGEFNPSNGRTNYNEKFKSKATMTVDTSTNTAYMELSSLRSEDTAVYYCASRDYDYDGRYFDYWGQGTLVTVSSASTKGPSVFPLAPCSKSTSGGTAALGCLVKDYFPEPVTVSWNSGALTSGVHTFPAVLQSSGLYSLSSVVTVPSSSLGTQTYICNVNHKPSNTKVDKKVEPDSGGGGGSGGGGSGGGGSDIQMTQSPSSLSASVGDRVTITCKSSQSLLYTSSQKNYLAWYQQKPGDAPKLLIYWASTRESGVPSRFSGSGSGTDFTLTISSLQPEDFATYYCQQYYAYPWTFGQGTKVEIKRTVAAPSVFIFPPSDKQLKSGTARVVCLLNNFYPREAKVQWKVDNALQSGNSQESVTEQDSKDSTYSLISTLTLSKADYEKHKVYACEVTHQGLSSPVTKSFNRGECHHHHHHHH
light 1: RIQMTQSPSSLSASVGDRVTITCKASQDVSIGVAWYQDKPGKAPKLLIYSASYRYTGVPSRFSGSGSGTDFTLTISSLQPEDFATYYCQQYYIYPYTFGQGTKVEIKGQPKAAPSVTLFPPSSEELQANKATLVCYISDFYPGAVTVAWKADSSPVKAGVETTTPSKQSNNKYAAWSYLSLTPEQWKSHRSYSCQVTHEGSTVEKTVAPTEC
light 2: DIQMTQSPSSLSASVGDRVTITCSASSSVTYMYWYQRKPGKAPKLLIYDTSNLASGVPSRFSGSGSGTDYTFTISSLQPEDIATYYCQQWSSHIFTFGQGTKVEIKRTVAAPSVFIFPPSKEQLKSGTASVVCLLNNFYPREAKVQWKVDNALQSGNSQESVTEQDSKDSTYSLSSTLTLSKADYEKHKVYACEVTHQGLSSPVTKSFNRGEC
chain: EVQLVESGGGLVQPGGSLRLSCAASGYTFTSYWLHWVRQAPGKGLEWVGMIDPSNSDTRFNPNFKDRFTISADTSKNTAYLQMNSLRAEDTAVYYCATYRSYVTPLDYWGRGTLVTVSSASTKGPSVFPLAPSSKSTSGGTAALGCLVADYFPEPVTVSWNSGALTSGVHTFPAVLQSSGLYSLSSVVTVPSSSLGTQTYICNVNHKPSNTKVDERVEPKSC
notes: Tandem Fab trispecific antibody without Fc
Kd [1]: 0.7 nM | koff [1]: 0.00021 s⁻¹ | kon [1]: 300000 M⁻¹ s⁻¹ | Kd [2]: 10 nM | koff [2]: 0.0058 s⁻¹ | kon [2]: 560000 M⁻¹ s⁻¹ | Kd [3]: 0.54 nM | koff [3]: 0.00014 s⁻¹ | kon [3]: 260000 M⁻¹ s⁻¹

Source: patent US20240132626A1 (Eli Lilly, published 2024)
